In article PMC9943652:

Tests used:
Experiment in all cases: EMSA
[1] = target: coreTFIIH (7-subunit: XPB, XPD, p62, p52, p44, p34, p8);XPG (human;human, UniProt P19447;P18074;P32780;Q92759;Q13888;Q13889;Q6ZYL4;P28715 …, |)
[2] = target: coreTFIIH (7-subunit: XPB, XPD, p62, p52, p44, p34, p8) (human, UniProt P19447;P18074;P32780;Q92759;Q13888;Q13889;Q6ZYL4 …)
XPG = target: T1, XPG (human, UniProt P28715 2-1186)
T1 sequence: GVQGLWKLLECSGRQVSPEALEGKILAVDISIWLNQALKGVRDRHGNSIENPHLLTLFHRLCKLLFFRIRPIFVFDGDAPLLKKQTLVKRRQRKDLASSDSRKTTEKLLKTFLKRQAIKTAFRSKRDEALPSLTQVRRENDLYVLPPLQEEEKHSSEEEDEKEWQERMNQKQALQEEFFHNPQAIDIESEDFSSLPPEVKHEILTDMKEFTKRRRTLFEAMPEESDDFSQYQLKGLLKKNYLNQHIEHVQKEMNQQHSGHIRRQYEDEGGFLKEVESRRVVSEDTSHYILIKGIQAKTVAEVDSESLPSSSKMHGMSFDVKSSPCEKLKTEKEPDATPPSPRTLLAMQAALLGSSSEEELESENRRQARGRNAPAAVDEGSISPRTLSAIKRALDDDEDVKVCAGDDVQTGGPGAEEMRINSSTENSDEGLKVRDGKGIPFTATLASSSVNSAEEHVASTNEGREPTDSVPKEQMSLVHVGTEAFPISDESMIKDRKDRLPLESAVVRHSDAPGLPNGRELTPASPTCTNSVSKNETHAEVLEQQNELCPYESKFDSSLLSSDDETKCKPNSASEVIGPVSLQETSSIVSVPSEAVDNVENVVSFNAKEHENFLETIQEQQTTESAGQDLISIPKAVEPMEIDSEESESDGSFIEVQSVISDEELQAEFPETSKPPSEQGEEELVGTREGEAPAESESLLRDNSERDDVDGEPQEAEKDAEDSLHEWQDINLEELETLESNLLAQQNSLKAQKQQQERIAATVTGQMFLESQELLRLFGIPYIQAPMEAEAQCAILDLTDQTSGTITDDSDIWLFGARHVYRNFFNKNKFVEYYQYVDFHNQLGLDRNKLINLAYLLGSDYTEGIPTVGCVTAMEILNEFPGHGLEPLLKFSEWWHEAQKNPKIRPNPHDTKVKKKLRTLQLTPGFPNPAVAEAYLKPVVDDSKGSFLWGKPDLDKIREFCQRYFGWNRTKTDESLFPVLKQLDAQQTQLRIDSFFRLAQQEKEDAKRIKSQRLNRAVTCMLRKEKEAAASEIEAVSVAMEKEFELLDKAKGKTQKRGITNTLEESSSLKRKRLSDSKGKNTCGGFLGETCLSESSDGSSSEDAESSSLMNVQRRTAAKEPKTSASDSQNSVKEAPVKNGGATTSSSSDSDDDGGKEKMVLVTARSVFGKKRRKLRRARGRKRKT

B1: 3'Cy5 40ss/24ds (mixed)
DNA 1: TTTTTTTTTTTTTTTTTTTTTTTTTTTTTTTTTTTTTTTTGCTGTTGCCCGTCTCACTGGTGAA
DNA 2: TTCACCAGTGAGACGGGCAACAGC
- Kd [1]: ~19 nM
- Kd [2]: ~82 nM
- Kd (XPG): ~134 nM
